{"source": "the Human Domainome abundance scans (Beltran et al. 2025)", "parents": {"B1": {"name": "GA-binding protein alpha chain, residues 172 to 250; numbered along this chain, Q06546 (parent)", "chain": "GYRKEQERLGIPYDPIQWSTDQVLHWVVWVMKEFSMTDIDLTTLNISGRELCSLNQEDFFQRVPRGEILWSHLELLRKY"}}, "note": "± gives the uncertainty stated by the source.", "data": [{"variants_of": "B1", "test": "abundance fitness (aPCA) (normalised: wild type 0, dead -1); higher = more abundant; growth selection in yeast, the domain comes from the species named", "details": "Homo sapiens", "values": [{"variant": "GYSKEQERLGIPYDPIQWSTDQVLHWVVWVMKEFSMTDIDLTTLNISGRELCSLNQEDFFQRVPRGEILWSHLELLRKY", "note": "[R3S]", "abundance fitness": "-0.214 ± 0.038"}, {"variant": "GYRKEQERLGIPYDPIQWSTDQVLHWVVWVMKEFSMTDIDLPTLNISGRELCSLNQEDFFQRVPRGEILWSHLELLRKY", "note": "[T42P]", "abundance fitness": "-0.106 ± 0.037"}, {"variant": "GYRKEQERLGIPYDPIQWSTDQVLHWVVWVMKCFSMTDIDLTTLNISGRELCSLNQEDFFQRVPRGEILWSHLELLRKY", "note": "[E33C]", "abundance fitness": "-0.276 ± 0.063"}, {"variant": "GYRKEQERLGIPYDPIQWSTDQVLHWVVWVMKHFSMTDIDLTTLNISGRELCSLNQEDFFQRVPRGEILWSHLELLRKY", "note": "[E33H]", "abundance fitness": "-0.092 ± 0.074"}, {"variant": "GYRKEQERLGIPYDPIQWSTDQVLHWVVWVMKSFSMTDIDLTTLNISGRELCSLNQEDFFQRVPRGEILWSHLELLRKY", "note": "[E33S]", "abundance fitness": "-0.1 ± 0.037"}, {"variant": "GYRKEQERLGIPYDPIQWSTDQPLHWVVWVMKEFSMTDIDLTTLNISGRELCSLNQEDFFQRVPRGEILWSHLELLRKY", "note": "[V23P]", "abundance fitness": "-0.909 ± 0.091"}, {"variant": "GYRKEQERLGIPYDPIQWSTDQWLHWVVWVMKEFSMTDIDLTTLNISGRELCSLNQEDFFQRVPRGEILWSHLELLRKY", "note": "[V23W]", "abundance fitness": "-1.04 ± 0.16"}, {"variant": "GYRKEQERLGIPYDPIQWSTDQVLHWVVWVMKEFSMTDIDLTTLNISGRELCSLNQEDFFQRVPRGEILWSHLELLRKT", "note": "[Y79T]", "abundance fitness": "-0.148 ± 0.084"}, {"variant": "GYRKEQERLGIPYDPIQWSTDQVLHWVVWVMKEFSMTDIDLTTLNISGRELCSLNQEDFFQRVPRGEILWSHLELLRKN", "note": "[Y79N]", "abundance fitness": "0.107 ± 0.1"}, {"variant": "GYRKEQERLGIPYDPIQWSTDQVLHWVVWVMKEFSMTDIDLTTLNISGREGCSLNQEDFFQRVPRGEILWSHLELLRKY", "note": "[L51G]", "abundance fitness": "-0.92 ± 0.063"}, {"variant": "GYRKEQERLGIPYDPIQWSTDQVLHWVVWVMKEFSMTDIDLTTLNISGREACSLNQEDFFQRVPRGEILWSHLELLRKY", "note": "[L51A]", "abundance fitness": "-0.982 ± 0.1"}, {"variant": "GYRKEQERLGIPYDPIQWSTDQVLHWVVWVMKEFSMTDIDLTTLNISGRENCSLNQEDFFQRVPRGEILWSHLELLRKY", "note": "[L51N]", "abundance fitness": "-0.897 ± 0.27"}, {"variant": "GYRKEQERLGIPYDPIQWSTDQVLHWVVWVMKEFSMTDIDLTTLSISGRELCSLNQEDFFQRVPRGEILWSHLELLRKY", "note": "[N45S]", "abundance fitness": "-0.019 ± 0.033"}, {"variant": "GYRKEQERLGIPYDPIQWSTDQVLHWVVWVMKEFSMTDIDLTTLNISGRELCSLNQEDAFQRVPRGEILWSHLELLRKY", "note": "[F59A]", "abundance fitness": "-0.813 ± 0.082"}, {"variant": "GYRKEQERLGIPYDPIQWSTDQVLHWVVWVEKEFSMTDIDLTTLNISGRELCSLNQEDFFQRVPRGEILWSHLELLRKY", "note": "[M31E]", "abundance fitness": "-0.289 ± 0.084"}, {"variant": "GYRKEQERLGIPYDGIQWSTDQVLHWVVWVMKEFSMTDIDLTTLNISGRELCSLNQEDFFQRVPRGEILWSHLELLRKY", "note": "[P15G]", "abundance fitness": "-0.888 ± 0.073"}, {"variant": "GYRKEQERLGIPYDLIQWSTDQVLHWVVWVMKEFSMTDIDLTTLNISGRELCSLNQEDFFQRVPRGEILWSHLELLRKY", "note": "[P15L]", "abundance fitness": "-0.72 ± 0.058"}, {"variant": "GYRKEQERLGIPYDPIQWSTDQVLHWVVWVMKEFSMTDIDLTTLNISGRELCSLNQEDFFQRIPRGEILWSHLELLRKY", "note": "[V63I]", "abundance fitness": "-0.077 ± 0.068"}, {"variant": "GYRKEMERLGIPYDPIQWSTDQVLHWVVWVMKEFSMTDIDLTTLNISGRELCSLNQEDFFQRVPRGEILWSHLELLRKY", "note": "[Q6M]", "abundance fitness": "-0.015 ± 0.09"}, {"variant": "GYRKENERLGIPYDPIQWSTDQVLHWVVWVMKEFSMTDIDLTTLNISGRELCSLNQEDFFQRVPRGEILWSHLELLRKY", "note": "[Q6N]", "abundance fitness": "-0.844 ± 0.2"}, {"variant": "GYRKEQECLGIPYDPIQWSTDQVLHWVVWVMKEFSMTDIDLTTLNISGRELCSLNQEDFFQRVPRGEILWSHLELLRKY", "note": "[R8C]", "abundance fitness": "-0.355 ± 0.064"}, {"variant": "GYRKEQEDLGIPYDPIQWSTDQVLHWVVWVMKEFSMTDIDLTTLNISGRELCSLNQEDFFQRVPRGEILWSHLELLRKY", "note": "[R8D]", "abundance fitness": "-0.185 ± 0.099"}, {"variant": "GYRKEQERLGIPYDPIQWSTDQVLHWVVWVMKEFSMTDIDLTTLNISGRELASLNQEDFFQRVPRGEILWSHLELLRKY", "note": "[C52A]", "abundance fitness": "-0.22 ± 0.034"}, {"variant": "GYRKEQERLGIPYDPIQWSTDQVLHWVVWVMKEFSMTDIDLTTLNISGRELSSLNQEDFFQRVPRGEILWSHLELLRKY", "note": "[C52S]", "abundance fitness": "-0.335 ± 0.045"}, {"variant": "GYRKEQERLGIPYDPIQWSTDQVTHWVVWVMKEFSMTDIDLTTLNISGRELCSLNQEDFFQRVPRGEILWSHLELLRKY", "note": "[L24T]", "abundance fitness": "-0.056 ± 0.062"}, {"variant": "GYRKEQERLGIPYDPIQWSTDQVLHWVVWVMKEFSMTDIDLTTLNISGRELCSLNQEDFFRRVPRGEILWSHLELLRKY", "note": "[Q61R]", "abundance fitness": "-0.011 ± 0.029"}, {"variant": "GYRKEQERLGIRYDPIQWSTDQVLHWVVWVMKEFSMTDIDLTTLNISGRELCSLNQEDFFQRVPRGEILWSHLELLRKY", "note": "[P12R]", "abundance fitness": "-0.969 ± 0.078"}, {"variant": "GYRKEQERLGIGYDPIQWSTDQVLHWVVWVMKEFSMTDIDLTTLNISGRELCSLNQEDFFQRVPRGEILWSHLELLRKY", "note": "[P12G]", "abundance fitness": "-0.577 ± 0.041"}, {"variant": "GYRKEQERLGIPYDPIQWSTDQVLHWVVWVMKEFSMTDIDLTTLNISGRELCSLNQEDFFQRVPKGEILWSHLELLRKY", "note": "[R65K]", "abundance fitness": "-0.013 ± 0.078"}, {"variant": "GYRKEQERLGIPYDPIQWSTDQVLHWVVWVMKEFSMTDIDLTTLNISGRELCSLNQEDFFQRVPRGEILWSRLELLRKY", "note": "[H72R]", "abundance fitness": "-0.295 ± 0.032"}, {"variant": "GYRKEQERLGIPYDPIQWSTDQVLHWVVWVMKEFSMTDIGLTTLNISGRELCSLNQEDFFQRVPRGEILWSHLELLRKY", "note": "[D40G]", "abundance fitness": "-0.239 ± 0.042"}, {"variant": "GYRKEQERLGIPYDPIQWSTDQVLHWVVWVMKEFSMTDIWLTTLNISGRELCSLNQEDFFQRVPRGEILWSHLELLRKY", "note": "[D40W]", "abundance fitness": "-0.989 ± 0.12"}, {"variant": "GYRKEQERLGIPYDPIQWSTDQVLHWVVWVMKEFSMTDIPLTTLNISGRELCSLNQEDFFQRVPRGEILWSHLELLRKY", "note": "[D40P]", "abundance fitness": "-0.111 ± 0.049"}, {"variant": "GYRKEQERLGIPYDPIQWSTDQVLHWVVWVMKEFYMTDIDLTTLNISGRELCSLNQEDFFQRVPRGEILWSHLELLRKY", "note": "[S35Y]", "abundance fitness": "-0.205 ± 0.086"}]}]}
